For the assay, the target named is native MICU1 (in the native, disulfide-connected MICU1-2 heterodimer) (human (endogenous in HEK 293)) (UniProt Q9BPX6).
Chain of UniProt Q9BPX6 (Q9BPX6 34-476, one chain of several): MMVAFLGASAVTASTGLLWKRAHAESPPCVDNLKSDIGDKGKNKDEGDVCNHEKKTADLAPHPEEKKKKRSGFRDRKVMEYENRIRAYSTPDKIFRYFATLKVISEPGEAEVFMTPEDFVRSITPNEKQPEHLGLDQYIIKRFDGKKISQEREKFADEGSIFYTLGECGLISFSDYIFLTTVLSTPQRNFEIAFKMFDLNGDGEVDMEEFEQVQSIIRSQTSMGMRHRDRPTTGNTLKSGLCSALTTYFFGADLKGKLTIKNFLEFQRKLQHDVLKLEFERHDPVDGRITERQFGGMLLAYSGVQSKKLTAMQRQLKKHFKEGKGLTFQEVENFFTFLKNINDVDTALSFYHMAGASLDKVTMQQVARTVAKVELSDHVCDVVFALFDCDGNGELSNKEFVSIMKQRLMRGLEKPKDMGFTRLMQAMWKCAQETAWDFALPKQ

In turn, “1D4-tagged human MCU D261A (from UniProt Q8NE86 51-351) (natural protein)” returned a rate of mitochondrial ^45Ca^2+ uptake in low Ca^2+ (0.5 μM), D261A MCU expressed in MCU-KO cells (gating by MICU1 lost) (pmol/min/10^6 cells) of 34.
